From patent US20250376535A1 (BEIJING STARMAB BIOMED TECHNOLOGY, published 2025)

B1: pgDD40-SZ-5 (VHH, not shown: small tags and cut ends)
VHH: QVQLVESGGALAQPGGSLRLSCEASENVRSVNAMAWYRQGPGKPRELVANITSGDATYYADSVKGRFTLSREGARNTVYLQMNSLKPEDTAVYQCNVHYTSWGGIRRDYWGRGTQVTVSS
B2: pgDD40-SZ-3 (VHH, not shown: small tags and cut ends)
VHH: QVQLVESGGGLVQAGDSLRLSCTASGRAFNTYTMAWFRQAPGKERDFVAAISRDGTITHYADSVKGRFTTTRDNAKNTMYLQMSSLKYDDTAVYYCAARRVGAVPERESAYEHWGQGTQVTVSS
B3: pgDD40-SZ-12 (VHH, not shown: small tags and cut ends)
VHH: EVQLVESGGGLVQPGGSLKLSCAASGFAFSRYTMSWVRQAPGKGLEWVSGIDSGGGRTSYINSVKGRFTISRDNAKNTLYLQMNSLKPEDTAVYHCAQGGDSGSYYRTSWGQGTQVTVSS
B4: 4-1BB-1 (VHH, not shown: small tags and cut ends)
VHH: QVQLVESGGGLVQAGGSLRLSCAASENIFSFNAMAWYRQAPGKQRELVALITGDGTTKYADSVKGRFTIARLNAKNTVNLEMNSLKPEDTAVYTCAALRNSDRTSWGQGTQVTVSS
B5: 4-1BB-2 (VHH, not shown: small tags and cut ends)
VHH: QVQLVESGGGLVQAGGSLRLSCAASGSIFSYNAMAWYRQAPGKQRELVALITSDRTTKYADSVKGRFTISRDDTKNTVDLEMNSLKPEDTAVYTCAALLNSARTSWGQGTQVTVSS
B6: 4-1BB-3 (VHH, not shown: small tags and cut ends)
VHH: EVQLVESGGGLVQAGGSLRLSCAASGNIFSYNGMAWYRQAPGNQRELVAVVAIDGTAKYADTVKGRFTISRDNIKNTVNLEMNSLKPEDTAVYTCAALRNSGSTSWGQGTQVTVSS
B7: 4-1BB-9 (VHH, not shown: small tags and cut ends)
VHH: QVQLVESGGGLVQAGGSLRLSCAASGSIFSYNAVAWYRQAPGKQRELVAVITSGGETTKYADSVKGRFTISRDITKNAVDLQMVSLKPEDTAVYTCAALRNSGSTSWGQGTQVTVSS
B8: 4-1BB-10 (VHH, not shown: small tags and cut ends)
VHH: EVQLVESGGGLVQAGGSLRLSCAASGAIFSYNGMAWYRQAPGKQREFVAVITPDGTTKYGDSVKGRFTISRDITKNTVDLEMNSLKPEDTAVYTCAALRNSGSTSWGQGTQVTVSS
B9: 4-1BB-36 (VHH, not shown: small tags and cut ends)
VHH: EVQLVESGGGLVQPGGSLRLSCAASRRTFSSYTAGWFRQAPGKEREFVASIRWISGTTTYADSVNGRFTISRDIAKNTVYLQMNSLKPDDTAVYYCAVDLSSDNDYDYWGQGTQVTVSS
B10: 4-1BB-56 (VHH, not shown: small tags and cut ends)
VHH: QVQLVESGGGLVQTGGSLRLSCAASGRISTIDTMFWYRQTPGKERDWVAFIPKDGLPTYVDSVKGRFTVSRDNARNTVYLQMNGLKPEDTAVYYCAVDVQEDRMRTYWGQGTQVTVSS
B11: 4-1BB-39 (VHH, not shown: small tags and cut ends)
VHH: QVQLGSLGGGSAQPGGSLRLSCTGSGNVYDFVVMGWYRQFPGRQRELVANITGRASPNYVDSVKGRFTISRDNAQNTVHLQMNNLKVEDSAIYYCYAAQQLTTIAGVMTLDYWGSGTQVTVSS
B12: MSA1 (VHH)
VHH: EVQLVESGGGLAQAGGSLRLSCADSGHSFSLYAMAWFRQTPEKEREFVAAISSSGGDTYYADSVKGRFTISRENAKNTAYLQMDSLKPGDTAVYFCAGNYYTSQLMRGMYEHWGQGTQVTVSS
notes: Llama single domain antibody with C-terminal His-tag, made in HEK293; not shown: C-terminal His-tag
B13: MSA B1 (VHH)
VHH: EVQLVESGGGLVQPGGSLHLSCAASRLTTGVTFSDYGMAWFRQAPGAERELLANINWSGQYTNYRDSVKGRAAIFRDNAKNTLYLNINSLKAEDTAVYYCAASSRKYGPGIKSQYEWWGQGTQVTVSS
notes: as for B12

Legend:
[1] = molecular target: T1, recombinant human CD40-Fc (human, UniProt P25942 21-193); test: ELISA, CD40-Fc coated, VHH at 1.6 nM
T1 construct: also called rh-CD40-Fc; CD40-hFc
T1 sequence (P25942 21-193): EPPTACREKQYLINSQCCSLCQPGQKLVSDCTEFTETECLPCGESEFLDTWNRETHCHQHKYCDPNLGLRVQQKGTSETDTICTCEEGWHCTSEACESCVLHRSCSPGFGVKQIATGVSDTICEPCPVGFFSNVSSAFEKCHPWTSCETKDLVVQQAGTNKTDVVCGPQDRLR
Description: (§1) After four times washing with PBST, the plate was incubated with detecting antibody anti-his-HRP (1:4000 dilution) 100 μl per well for one hour with shaking at 60 rpm. The plate was developed with 100 μL of TMB per well in the dark and then stopped by 50 μL of stop solution per well.

[2] = molecular target: T1, recombinant human CD40-Fc; test: ELISA, CD40-Fc coated, VHH at 8 nM
Description: as §1

[3] = molecular target: T1, recombinant human CD40-Fc; test: ELISA, CD40-Fc coated, VHH at 0.32 nM
Description: as §1

[4] = molecular target: T1, recombinant human CD40-Fc; test: ELISA, CD40-Fc coated, VHH at 0.0026 nM
Description: as §1

[5] = molecular target: T1, recombinant human CD40-Fc; test: ELISA, CD40-Fc coated, VHH at 0.064 nM
Description: as §1

[6] = molecular target: T1, recombinant human CD40-Fc; test: ELISA, CD40-Fc coated, VHH at 200 nM
Description: as §1

[7] = molecular target: T1, recombinant human CD40-Fc; test: ELISA, CD40-Fc coated, VHH at 0.013 nM
Description: as §1

[8] = molecular target: T2, Human CD40 antigen (recombinant, BLI) (human, UniProt P25942 21-193); test: BLI, VHH-His on anti-His tips, human CD40 in solution;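 further: kinetics measured at 30 °C in PBS pH 7.2, association tracked for 200 s, then dissociation followed in PBS lacking CD40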
T2 construct: also called rh-CD40
T2 sequence (P25942 21-193 limits assumed): as the sequence (P25942 21-193) above
Description: Bio-Layer Interferometry (BLI) kinetic binding analysis. […] Affinity measurements were performed with Gator equipped with Anti-Penta-His capture (HIS1K) biosensor tips. The assay was performed at 30° C. in 1×PBS buffer (Gibco®, PBS pH7.2). Samples were agitated at 1000 rpm. Prior to analysis, sensors were humidified for 15 min. […] Sensor data was collected throughout the experiments, processed, and analyzed using the Gator data analysis software.
Briefly, purified anti-CD40 VHH was tested for its binding capacity with HIS1K sensor tips. Tips were loaded using 20 μg/ml of anti-CD40 VHH. Loading proceeded for 300 sec resulting in capture levels of between 1.8 and 2 nm. […] Association was initiated and monitored for 200 sec, after which tips were transferred to 1×PBS buffer without CD40 protein in order to monitor dissociation.

[9] = molecular target: T1, recombinant human CD40-Fc; test: ELISA, CD40-Fc coated, VHH at 1000 nM
Description: as §1

[10] = molecular target: T1, recombinant human CD40-Fc; test: ELISA, CD40-Fc coated, VHH at 40 nM
Description: as §1

[11] = molecular target: T3, 4-1BB Fc (human, UniProt Q07011 24-183); test: ELISA, 4-1BB Fc coated, VHH at 0.005 nM
T3 construct: also called rh-41BB; 41BB-hFc
T3 sequence (Q07011 24-183): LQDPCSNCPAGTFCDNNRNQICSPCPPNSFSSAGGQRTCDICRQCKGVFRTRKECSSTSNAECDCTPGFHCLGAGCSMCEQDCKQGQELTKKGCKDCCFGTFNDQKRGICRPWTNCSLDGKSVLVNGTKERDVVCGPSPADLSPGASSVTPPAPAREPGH
Description: (§2) After four rounds of washing with PBST, the plate was incubated with detecting antibody anti-his-HRP (1:4000 dilution) 100 μl per well for one hour with shaking at 60 rpm. The plate was developed with 100 μL of TMB per well in the dark and then stopped by 50 μL of stop solution per well. […] Data was analyzed using GraphPad Prisma 9.1.

[12] = molecular target: T3, 4-1BB Fc; test: ELISA, 4-1BB Fc coated, VHH at 0.00005 nM
Description: as §2

[13] = molecular target: T3, 4-1BB Fc; test: ELISA, 4-1BB Fc coated, VHH at 0.05 nM
Description: as §2

[14] = molecular target: T3, 4-1BB Fc; test: ELISA, 4-1BB Fc coated, VHH at 500 nM
Description: as §2

[15] = molecular target: T3, 4-1BB Fc; test: ELISA, 4-1BB Fc coated, VHH at 5 nM
Description: as §2

[16] = molecular target: T3, 4-1BB Fc; test: ELISA, 4-1BB Fc coated, VHH at 0.5 nM
Description: as §2

[17] = molecular target: T3, 4-1BB Fc; test: ELISA, 4-1BB Fc coated, VHH at 50 nM
Description: as §2

[18] = molecular target: T3, 4-1BB Fc; test: ELISA, 4-1BB Fc coated, VHH at 0.0005 nM
Description: as §2

[19] = molecular target: T4, Human 41BB antigen (BLI) (human, UniProt Q07011 24-183); test: BLI, VHH-His on anti-His tips, human 41BB in solution;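 further: association tracked for 200 s, after which dissociation was followed in 1×PBS free of 41BB protein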
T4 construct: also called 41BB protein
T4 sequence (Q07011 24-183 limits assumed): as the sequence (Q07011 24-183) above
Description: Tips were loaded using 20 μg/ml of anti-41BB VHH. Loading proceeded for 300 sec resulting in capture levels of between 1.8 and 2 nm. […] Association was initiated and monitored for 200 sec, after which tips were transferred to 1×PBS buffer without 41BB protein, in order to monitor dissociation.

[20] = molecular target: T5, murine serum albumin (murine, UniProt P07724 25-608); test: BLI (Gator), His-tagged VHH on anti-His sensor, murine serum albumin 100 nM in solution
T5 construct: As antigen 'MSA' means murine serum albumin; the VHHs also carry the label MSA; also called MSA
Description: (§3) Kinetic binding analysis of MSA VHHs were performed with Gator Prime system equipped with analyze software. […] The experiments were done at 30° C. Prior to analysis, sensors were socked in Q buffer for 600 sec with shaking at 1000 rpm, and then 2 μM of HIS tagged MSA VHHs were loaded to Anti-His sensors with shaking at 400 rpm for 120 sec. Loaded sensors were transferred into Q buffer for 60 sec. Association of HSA or MSA at 100 nM was initiated and monitored for 120-180 sec with shaking at 1000 rpm, and finally dissociation in Q buffer for 120-180 sec with 1000 rpm shaking. Software V2.0 (Gator Bio) was used for data analysis. The on-rate (Kₒₙ) and off-rate (Kd) were determined by fitting of the association and dissociation phases of each sample. The mathematical model used assumes a 1:1 stoichiometry, fitting only one analyte in solution binding to one binding site on the surface. The equilibrium dissociation constant (KD), a measure for affinity, was then calculated as the ratio of Kd and Kₒₙ.

[21] = molecular target: T6, human serum albumin (human, UniProt P02768 25-609); test: BLI (Gator), His-tagged VHH on anti-His sensor, HSA 100 nM in solution
T6 construct: also called HSA
Description: as §3

Row | Binder | OD450 [11] | OD450 [12] | OD450 [13] | OD450 [14] | OD450 [15] | OD450 [16] | OD450 [17] | OD450 [18] | Kd [19] | koff [19] | kon [19] | further results
1 | B1 | – | – | – | – | – | – | – | – | – | – | – | OD450 [1]: 0.85; OD450 [2]: 1.41; OD450 [3]: 0.25; OD450 [4]: 0.059; OD450 [5]: 0.085; OD450 [6]: 1.73; OD450 [7]: 0.061; Kd [8]: < 0.001 nM; koff [8]: 1e-06 s⁻¹; kon [8]: 784000 M⁻¹ s⁻¹; OD450 [9]: 1.67; OD450 [10]: 1.68
2 | B2 | – | – | – | – | – | – | – | – | – | – | – | OD450 [1]: 1.02; OD450 [2]: 1.59; OD450 [3]: 0.287; OD450 [4]: 0.055; OD450 [5]: 0.098; OD450 [6]: 1.64; OD450 [7]: 0.055; Kd [8]: 0.106 nM; koff [8]: 7.65e-05 s⁻¹; kon [8]: 722000 M⁻¹ s⁻¹; OD450 [9]: 1.57; OD450 [10]: 1.64
3 | B3 | – | – | – | – | – | – | – | – | – | – | – | OD450 [1]: 0.061; OD450 [2]: 0.09; OD450 [3]: 0.059; OD450 [4]: 0.06; OD450 [5]: 0.065; OD450 [6]: 0.895; OD450 [7]: 0.058; Kd [8]: 1.43 nM; koff [8]: 0.000806 s⁻¹; kon [8]: 564000 M⁻¹ s⁻¹; OD450 [9]: 1.54; OD450 [10]: 0.256
4 | B4 | 0.064 | 0.067 | 0.061 | 0.547 | 0.108 | 0.106 | 0.308 | 0.065 | 3.17 nM | 0.00264 s⁻¹ | 834000 M⁻¹ s⁻¹ | –
5 | B5 | 0.063 | 0.065 | 0.067 | 0.112 | 0.07 | 0.059 | 0.129 | 0.058 | 2.57 nM | 0.00252 s⁻¹ | 979000 M⁻¹ s⁻¹ | –
6 | B6 | 0.067 | 0.066 | 0.06 | 0.165 | 0.089 | 0.065 | 0.183 | 0.062 | 1.82 nM | 0.00129 s⁻¹ | 708000 M⁻¹ s⁻¹ | –
7 | B7 | 0.064 | 0.07 | 0.065 | 0.264 | 0.084 | 0.061 | 0.292 | 0.067 | 4.55 nM | 0.00276 s⁻¹ | 606000 M⁻¹ s⁻¹ | –
8 | B8 | 0.066 | 0.068 | 0.065 | 1.58 | 0.828 | 0.11 | 1.76 | 0.068 | 0.657 nM | 0.000539 s⁻¹ | 820000 M⁻¹ s⁻¹ | –
9 | B9 | 0.068 | 0.073 | 0.078 | 4.25 | 1.35 | 0.202 | 3.19 | 0.071 | 29.2 nM | 0.00919 s⁻¹ | 314000 M⁻¹ s⁻¹ | –
10 | B10 | 0.203 | 0.129 | 0.397 | 2.7 | 2.89 | 1.69 | 3.08 | 0.181 | 0.781 nM | 0.000552 s⁻¹ | 707000 M⁻¹ s⁻¹ | –
11 | B11 | 0.064 | 0.063 | 0.068 | 0.098 | 0.07 | 0.059 | 0.065 | 0.072 | – | – | – | –
12 | B12 | – | – | – | – | – | – | – | – | – | – | – | Kd [20]: 6.64 nM; koff [20]: 0.00117 s⁻¹; kon [20]: 176000 M⁻¹ s⁻¹; koff [21]: 0.0217 s⁻¹
13 | B13 | – | – | – | – | – | – | – | – | – | – | – | Kd [20]: 5.32 nM; koff [20]: 0.000605 s⁻¹; kon [20]: 114000 M⁻¹ s⁻¹; Kd [21]: 11.3 nM; koff [21]: 0.00511 s⁻¹; kon [21]: 454000 M⁻¹ s⁻¹
